Assay results: PMC6381605, “NR4A Nuclear Receptors Target Poly-ADP-Ribosylated DNA-PKcs Protein to Promote DNA Repair”

Target: NR4A2 R319A (UniProt Q06219 1-598, R319A)
Test: EMSA; EMSA: 1 ug protein, 10 mM Tris pH 8, 50 mM NaCl, 1 mM EDTA, 5% glycerol, 5 mM DTT, 20 ng/ul dIdC, 1.25 mg/ml BSA, 20 min room temperature; 5% PAGE 0.25x TBE. PAR dot blots left out (PAR is not a defined nucleic acid).
Conditions: protein: recombinant; tags: GST tag cleaved (PreScission); label: 32P (alpha-32P-dCTP Klenow fill-in); 5' overhang 4 nt (GATC) on both ends before Klenow fill-in

Sequence of NR4A2 R319A (Q06219 whole entry R319A): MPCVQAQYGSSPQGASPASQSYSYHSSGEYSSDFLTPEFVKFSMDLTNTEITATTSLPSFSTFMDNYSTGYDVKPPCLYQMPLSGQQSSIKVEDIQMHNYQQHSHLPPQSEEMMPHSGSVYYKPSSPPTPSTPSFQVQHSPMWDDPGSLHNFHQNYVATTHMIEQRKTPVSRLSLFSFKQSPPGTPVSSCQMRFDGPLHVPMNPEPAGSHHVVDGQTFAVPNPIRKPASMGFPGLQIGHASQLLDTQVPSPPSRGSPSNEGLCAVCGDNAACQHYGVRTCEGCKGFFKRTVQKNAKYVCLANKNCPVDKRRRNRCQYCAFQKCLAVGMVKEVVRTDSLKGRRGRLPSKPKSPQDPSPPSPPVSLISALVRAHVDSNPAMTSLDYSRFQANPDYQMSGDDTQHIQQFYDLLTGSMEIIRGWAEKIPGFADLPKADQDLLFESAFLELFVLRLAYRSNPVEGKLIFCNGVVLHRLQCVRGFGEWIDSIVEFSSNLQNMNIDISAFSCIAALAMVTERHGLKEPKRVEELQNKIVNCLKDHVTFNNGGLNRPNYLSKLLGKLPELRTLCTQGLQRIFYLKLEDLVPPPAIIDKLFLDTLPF

B1: NBRE (dsDNA)
DNA 1: GATCCTCGTGCGAAAAGGTCAAGCGCTA
DNA 2: GATCTAGCGCTTGACCTTTTCGCACGAG
B1: no binding.
